According to patent US20230038720A1:

Target: TACE
Experiment: cell-based or functional assay

Binder	TACE IC50
cyclo(GVCACRRRFCACRR) (disulfide (positions not given here); not fully specified (bridges)) [Peptide 10]	2.74 µg/mL
cyclo(GVCACARRFCACRR) (disulfide (positions not given here); not fully specified (bridges)) [Peptide 5]	1.83 µg/mL
cyclo(GVCICRRRFCLCRR) (disulfide (positions not given here); not fully specified (bridges)) [Peptide 2]	2.2 µg/mL
cyclo(GVCICRRGVCICRR) (disulfide (positions not given here); not fully specified (bridges)) [Peptide 4]	0.546 µg/mL
cyclo(GACICRRRFCLCRR) (disulfide (positions not given here); not fully specified (bridges)) [Peptide 9]	0.515 µg/mL
cyclo(GVCSCRRRFCLCRR) (disulfide (positions not given here); not fully specified (bridges)) [Peptide 8]	2.61 µg/mL

Further lines, results first:

TACE IC50	Binder
3.19 µg/mL	cyclo(GVCSCRRRFCICRR) (disulfide (positions not given here); not fully specified (bridges)) [Peptide 6]
1.87 µg/mL	cyclo(GVCICRRRFCSCRR) (disulfide (positions not given here); not fully specified (bridges)) [Peptide 7]
1.15 µg/mL	cyclo(GVCLCRRGVCLCRR) (disulfide (positions not given here); not fully specified (bridges)) [Peptide 3]
0.858 µg/mL	cyclo(GVCICRRRVCICGR) (disulfide (positions not given here); not fully specified (bridges)) [Peptide 1]
